According to US20180066035A1 (published 2018):
Substitutions are numbered along the chain they refer to. Numbers in names are those of the source.

What was measured:
[1] = target: T1, human ICAM-1 on cells (HeLa, 8505C, 8505C/LPS, HMEC-1, T cells) (human, UniProt P05362 28-532); assay: estimated from titrated R6.5 antibody binding to HeLa cells
T1 construct: whole, on cells

[2] = target: T2, human ICAM-1 (immobilized, SPR) (human, UniProt P05362 28-480, limits assumed); assay: SPR, I domain over immobilized human ICAM-1
T2 construct: Form immobilized on the SPR chip is not described; also called Intercellular adhesion molecule-1; CD54
T2 sequence (P05362 28-480 limits assumed): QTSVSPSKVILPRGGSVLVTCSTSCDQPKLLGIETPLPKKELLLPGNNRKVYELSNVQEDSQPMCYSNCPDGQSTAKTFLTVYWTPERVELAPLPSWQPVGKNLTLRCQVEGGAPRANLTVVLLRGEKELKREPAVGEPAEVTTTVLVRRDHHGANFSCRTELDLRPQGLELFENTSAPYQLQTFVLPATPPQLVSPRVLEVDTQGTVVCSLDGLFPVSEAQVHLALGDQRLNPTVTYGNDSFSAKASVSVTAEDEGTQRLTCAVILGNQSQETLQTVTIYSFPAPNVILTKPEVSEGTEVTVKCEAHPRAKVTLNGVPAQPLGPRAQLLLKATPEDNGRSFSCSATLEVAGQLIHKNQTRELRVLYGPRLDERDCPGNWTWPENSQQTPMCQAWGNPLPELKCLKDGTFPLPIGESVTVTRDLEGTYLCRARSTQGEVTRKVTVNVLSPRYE

[3] = target: T3, recombinant human ICAM-1 fused to human Fcγ (R&D Systems) (human, UniProt P05362 28-480); assay: estimated from flow cytometry MFI of ICAM-1-Fc binding to yeast cells expressing the I domain variant
T3 construct: Bought reagent; also called ICAM-1-Fc; human ICAM-1-Fcγ; not shown: human Fcγ
T3 sequence (P05362 28-480 limits assumed): as above

murine ICAM-1 (SPR) = murine ICAM-1 (SPR) (murine, UniProt P13597 28-485, limits assumed); assay: SPR, F265S/F292G flowed over murine ICAM-1 (FIG. 1C)
Sequence of murine ICAM-1 (SPR) (P13597 28-485 limits assumed): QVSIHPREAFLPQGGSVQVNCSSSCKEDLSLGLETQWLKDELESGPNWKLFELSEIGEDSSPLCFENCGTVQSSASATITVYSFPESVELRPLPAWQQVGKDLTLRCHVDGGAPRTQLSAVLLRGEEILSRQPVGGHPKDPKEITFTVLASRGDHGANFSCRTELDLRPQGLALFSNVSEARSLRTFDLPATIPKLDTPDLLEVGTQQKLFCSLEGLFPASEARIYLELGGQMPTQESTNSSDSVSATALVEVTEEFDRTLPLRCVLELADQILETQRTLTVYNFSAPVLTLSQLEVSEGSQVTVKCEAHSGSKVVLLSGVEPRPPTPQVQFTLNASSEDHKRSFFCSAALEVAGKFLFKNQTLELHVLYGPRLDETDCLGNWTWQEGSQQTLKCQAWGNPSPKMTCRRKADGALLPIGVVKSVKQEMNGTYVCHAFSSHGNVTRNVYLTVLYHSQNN

[4] = target: T2, human ICAM-1 (immobilized, SPR); assay: SPR
[5] = target: human ICAM-1 on cells (HeLa, 8505C, 8505C/LPS, HMEC-1, T cells) (human) (UniProt P05362); assay: cell-based or functional assay
Sequence of human ICAM-1 on cells (HeLa, 8505C, 8505C/LPS, HMEC-1, T cells) (human) (P05362 28-532): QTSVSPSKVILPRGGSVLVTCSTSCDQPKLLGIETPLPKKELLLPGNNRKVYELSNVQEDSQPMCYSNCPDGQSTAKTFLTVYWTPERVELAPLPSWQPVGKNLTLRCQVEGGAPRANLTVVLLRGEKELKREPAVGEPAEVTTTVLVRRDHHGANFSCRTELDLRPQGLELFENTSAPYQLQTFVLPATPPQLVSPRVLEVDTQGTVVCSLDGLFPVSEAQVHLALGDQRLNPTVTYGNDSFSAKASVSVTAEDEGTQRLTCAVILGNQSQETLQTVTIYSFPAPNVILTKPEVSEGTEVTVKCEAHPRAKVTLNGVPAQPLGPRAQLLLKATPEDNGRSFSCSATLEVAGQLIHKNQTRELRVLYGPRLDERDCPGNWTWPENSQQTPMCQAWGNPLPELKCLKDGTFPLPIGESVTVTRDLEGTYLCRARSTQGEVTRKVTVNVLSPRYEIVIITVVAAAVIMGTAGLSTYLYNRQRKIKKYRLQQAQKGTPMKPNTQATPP

[6] = target: murine ICAM-1 on bEnd.3 cells (mouse) (UniProt P13597); assay: cell-based or functional assay
Sequence of murine ICAM-1 on bEnd.3 cells (mouse) (P13597 28-537): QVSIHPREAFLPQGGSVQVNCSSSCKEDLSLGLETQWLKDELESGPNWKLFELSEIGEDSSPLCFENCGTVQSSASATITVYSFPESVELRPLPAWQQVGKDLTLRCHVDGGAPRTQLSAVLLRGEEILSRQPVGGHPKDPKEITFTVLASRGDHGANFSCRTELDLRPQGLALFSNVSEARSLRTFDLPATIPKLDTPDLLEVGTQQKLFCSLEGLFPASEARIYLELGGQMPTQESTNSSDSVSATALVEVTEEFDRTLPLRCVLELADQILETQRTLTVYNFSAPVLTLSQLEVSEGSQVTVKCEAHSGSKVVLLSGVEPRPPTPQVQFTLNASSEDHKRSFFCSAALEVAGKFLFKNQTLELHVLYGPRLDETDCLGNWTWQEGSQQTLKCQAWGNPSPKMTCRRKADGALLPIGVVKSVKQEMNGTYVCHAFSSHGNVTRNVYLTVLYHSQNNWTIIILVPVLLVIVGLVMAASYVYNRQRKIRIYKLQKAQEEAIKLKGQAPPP

[7] = target: T2, human ICAM-1 (immobilized, SPR); assay: comparison of the Table 1 affinities

T1 sequence (P05362 28-532): as the sequence (P05362 28-532) above

B1: R6.5 (mouse anti-human ICAM-1 monoclonal antibody from hybridoma; scFv derived from it) (antibody, V domains shown)
VH: QVQLQQSGPELVRPGVSVKISCKGSGYTFIDYAIHWVKESHAKSLEWIGVISAYSGDTNYNQKFKGKATMTVDKSSNTAYLELARLTSEDSAIYYCARGGWLLLSFDYWGQGTTLTVSS
VL: DVVMTQSPLSLPVSLGDQASISCRSSQSLVHSNGNNYLHWYLQKSGQAPKLLIYKVSNRFSGVPDRFSGSGSGTDFTLKISRVEAEDLGVYFCSQSTHVPLTFGGGTKLEIK
- Kd [1]: 0.01 µM

B2: Wild-type (WT) LFA-1 I domain (receptor)
chain: GNVDLVFLFDGSMSLQPDEFQKILDFMKDVMKKLSNTSYQFAAVQFSTSYKTEFDFSDYVKWKDPDALLKHVKHMLLLTNTFGAINYVATEVFREELGARPDATKVLIIITDGEATDSGNIDAAKDIIRYIIGIGKHFQTKESQETLHKFASKPASEFVKILDTFEKLKDLFTELQKKIYVIEG
notes: I domain of the αL subunit of human LFA-1; also called WT I domain; wild-type human I domain
- Kd [2]: 1500 µM

B3: F292S LFA-1 I domain (receptor)
chain: B2 chain with F165S
- Kd [3]: 1.24 µM

B4: I309T LFA-1 I domain (receptor)
chain: B2 chain with I182T
- Kd [3]: 127 µM

B5: F265S LFA-1 I domain (receptor)
chain: B2 chain with F138S
- Kd [2]: 0.145 µM

B6: F265S/F292G (DM) LFA-1 I domain (receptor)
chain: B2 chain with F138S, F165G
- Kd (murine ICAM-1 (SPR)): 0.002 µM
- fold higher affinity than the wild-type (WT) I domain [4]: ~200000 fold
- Kd [2]: 0.006 µM

B7: L289G LFA-1 I domain (receptor)
chain: B2 chain with L162G
- Kd [3]: 0.196 µM

B8: F292G LFA-1 I domain (receptor)
chain: B2 chain with F165G
- Kd [2]: 0.119 µM
- time (hours) to 50% killing, 8505C target cells [5]: 27.3 h
- time (hours) to 50% killing, 8505C/LPS target cells [5]: 24 h
- time (hours) to 50% killing, HMEC target cells [5]: 21.1 h
- time (hours) to 50% killing, HeLa target cells [5]: 14.9 h
- time (hours) to 50% killing, bEND3 target cells [6]: 16.2 h

B9: L295A LFA-1 I domain (receptor)
chain: B2 chain with L168A
- Kd [3]: 37 µM

B10: F292A LFA-1 I domain (receptor)
chain: B2 chain with F165A
- fold lower affinity than the scFv-based R6.5 CAR [7]: > 1000 fold
- Kd [2]: 20 µM
- time (hours) to 50% killing, 8505C target cells [5]: 41.5 h
- time (hours) to 50% killing, 8505C/LPS target cells [5]: 30.8 h
- time (hours) to 50% killing, HeLa target cells [5]: 18.7 h

B11: I288N LFA-1 I domain (receptor)
chain: B2 chain with I161N
- Kd [3]: 202 µM

B12: TM (F265S/F292G/G311C) I domain CAR (receptor, part only; not given: Tag, hinge, transmembrane and signaling domains, not shown: another chain or arm of the molecule; a dimerising Fc or GST; small tags and cut ends)
chain: ECIKGNVDLVFLFDGSMSLQPDEFQKILDFMKDVMKKLSNTSYQFAAVQFSTSYKTEFDFSDYVKWKDPDALLKHVKHMLLLTNTFGAINYVATEVFREELGARPDATKVLIIITDGEATDSGNIDAAKDIIRYIIGIGKHSQTKESQETLHKFASKPASEFVKILDTGEKLKDLFTELQKKIYVIECTS
modifications: Disulfide bond between Cys-125 (chain position 2) and the introduced Cys-311 (chain position 188), per paragraph 45.
- time (hours) to 50% killing, 8505C target cells [5]: 17.1 h
- time (hours) to 50% killing, 8505C/-ICAM-1 target cells [5]: 32.6 h
- time (hours) to 50% killing, 8505C/LPS target cells [5]: 15.1 h
- time (hours) to 50% killing, HMEC target cells [5]: 13.4 h
- time (hours) to 50% killing, HeLa target cells [5]: 10.8 h
- time (hours) to 50% killing, bEND3 target cells [6]: 13 h

B13: F265S/F292G/G311C (TM) LFA-1 I domain (receptor)
chain: B12 chain
modifications: disulfide bond between Cys-311 (G311C) and naturally unpaired Cys-125
notes: also called triple mutant
- Kd [2]: ~0.001 µM
